Experimental data from publication PMC11551315 (Proceedings of the National Academy of Sciences of the …, 2024).
Read-outs that look alike come from different tables or passages of the source.

Legend:
[1] = molecular target: T1, Cdc15-eGFP (S. cerevisiae, UniProt P27636 1-974); experiment: AlphaScreen or HTRF
T1 sequence (looked up): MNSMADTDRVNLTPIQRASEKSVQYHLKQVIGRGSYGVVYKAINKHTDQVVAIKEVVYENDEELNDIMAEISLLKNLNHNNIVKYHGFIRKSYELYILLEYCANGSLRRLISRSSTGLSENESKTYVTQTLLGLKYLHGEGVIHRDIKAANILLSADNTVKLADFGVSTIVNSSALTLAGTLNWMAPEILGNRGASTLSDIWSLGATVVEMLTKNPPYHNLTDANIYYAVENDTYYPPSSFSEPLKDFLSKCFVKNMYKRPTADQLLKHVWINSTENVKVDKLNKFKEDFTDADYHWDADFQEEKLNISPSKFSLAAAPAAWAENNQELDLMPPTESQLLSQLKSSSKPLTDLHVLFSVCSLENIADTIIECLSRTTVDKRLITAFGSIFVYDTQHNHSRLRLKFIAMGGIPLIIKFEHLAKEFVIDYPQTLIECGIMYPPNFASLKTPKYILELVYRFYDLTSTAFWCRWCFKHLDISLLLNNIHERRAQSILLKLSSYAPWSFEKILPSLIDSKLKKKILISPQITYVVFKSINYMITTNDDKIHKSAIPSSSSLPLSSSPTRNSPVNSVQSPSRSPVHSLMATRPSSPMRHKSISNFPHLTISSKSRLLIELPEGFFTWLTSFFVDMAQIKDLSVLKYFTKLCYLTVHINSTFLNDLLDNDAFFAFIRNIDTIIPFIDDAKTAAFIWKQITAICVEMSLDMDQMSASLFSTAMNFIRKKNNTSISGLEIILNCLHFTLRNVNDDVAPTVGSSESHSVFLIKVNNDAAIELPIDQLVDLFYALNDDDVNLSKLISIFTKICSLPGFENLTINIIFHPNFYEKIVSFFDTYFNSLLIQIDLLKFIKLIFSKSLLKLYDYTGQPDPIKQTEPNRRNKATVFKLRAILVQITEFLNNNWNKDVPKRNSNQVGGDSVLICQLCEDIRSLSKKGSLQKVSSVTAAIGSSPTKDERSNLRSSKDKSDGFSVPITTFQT

[2] = molecular target: T1, Cdc15-eGFP; experiment: AlphaScreen or HTRF; remark: listed apart in the source

Kd [1]: 16 ± 3 nM
Kd [2]: 3.9 ± 0.8 nM
B1: Recombinant Tem1 (unlabeled) (natural protein, S. cerevisiae, UniProt P38987 1-245, looked up)
chain: MATPSTGANNSIPAVRNQVEVQVGLVGDAQVGKTSLMVKYVQNIYDKEYTQTLGVNFLKRKVSIRSTDIIFSIMDLGGQREFINMLPIATVGSSVIIFLFDLTRPETLSSIKEWYRQAYGLNDSAIPILVGTKYDLLIDLDPEYQEQISRTSMKYAQVMNAPLIFCSTAKSINIQKIFKIALAKIFNLTLTIPEINEIGDPLLIYKHLGGQQHRHHNKSQDRKSHNIRKPSSSPSSKAPSPGVNT
